Sequences and labels used below:
B1: TPR t1 (parent)
chain: GACCAAUCUGCCCUCAGAGCUCGAGAACAUCUUCGGAUGCAGAGGAGGCAGGCUUCGGUGGCGCGAUAGCGCCAACGUCCUCAACCUCCAAUGCAUCCCACCACAUGAUGAUGCCUGAAGAGCCUUGGUUUUUUG

In this data set the parent is B1. Put plainly: polymerase ribozyme fitness, log enrichment relative to wild type (log ratio); higher = more active; in vitro selection for triplet polymerase activity. The gist of the method: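 Only genotypes with ≥10 input reads and ≥1 read per output were kept after Illumina sequencing of input and output libraries. These libraries were PCR-built, transcribed mutants of each subunit of a heterodimeric triplet polymerase ribozyme, each put through one triplicate in vitro selection round with frozen incubation at −7 °C, gel excision of extended constructs, streptavidin-bead capture and RT-PCR. Fitness is a logarithmic ratio of genotype enrichment to wild-type enrichment, from inverse-variance-weighted replicate averages, with the logarithm in base 2.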
As for A43U U129G, the “polymerase ribozyme fitness (log ratio)” value is -2.71.
As to G42U C62U, the “polymerase ribozyme fitness (log ratio)” value was -1.69.
The value for A43U U54A C73U G77C was -1.92; that for G44U G60C A91U A121G was -0.902; that for G44U G45C U78C was -3.51.
A43C G48C C72G C102G: the “polymerase ribozyme fitness (log ratio)” value is -7.62.
For A43G C101U, the “polymerase ribozyme fitness (log ratio)” value is -1.47.
Turning to G44C C102G A108C C114G G122A, the “polymerase ribozyme fitness (log ratio)” value is -6.67.
G44U U96A U116G: the “polymerase ribozyme fitness (log ratio)” value is -3.66.
A43G U87G: the “polymerase ribozyme fitness (log ratio)” value is -0.843.
The value for G44C G135U was -1.88; that for A43C C64U was -1.64.
To G44U C56A belongs -1.54; to G44C U54A C64U C82U C114G, -4.69.
The value for G44U G120U U130G was -1.7; that for G44C U87G was -0.724.
For G44A G120U, the “polymerase ribozyme fitness (log ratio)” value is -1.14.
The value for G44A G120C was 0.014; that for G45A C88A was -0.795; that for A43U C86U was -2.52.
To G42U U55G G117A belongs -3.02; to A43G C62U C72A G113C, -2.93.
Regarding A43U C56G C114U, the “polymerase ribozyme fitness (log ratio)” value was -2.92.
The value for G44C U125A was -1.22; that for G45A C56A was -0.425; that for G44U A108G was -2.57.
The value for G45A C123G was 0.984.
Consider G44U C56A G57A C104U U106G, for which the “polymerase ribozyme fitness (log ratio)” value was -2.38.
Turning to A43U A46G U55G, the “polymerase ribozyme fitness (log ratio)” value is -1.34.
On to G45A C73U C88A U112C G122U, for which the “polymerase ribozyme fitness (log ratio)” value was 0.105.
The value for G45A A103U was -7.16; that for G44U G135U was -2.86; that for G42U C80U was -2.21.
The value for G44A G60U C72U A90U was -1.55; that for G42U G57C C104U U125G was -1.31.
To G44U C53G G61C U81G C102U U132A belongs -3.53; to G42U G120U, -1.31.
A43G G61C: the “polymerase ribozyme fitness (log ratio)” value was -4.3.
To A43G G57U C88A C104A G120U belongs -5.76.
Take G44A G71C C89U: the “polymerase ribozyme fitness (log ratio)” value was -1.03.
For A43U A46G U106A, the “polymerase ribozyme fitness (log ratio)” value was -2.63.
For G45A C49A C72G G128A, the “polymerase ribozyme fitness (log ratio)” value was -3.14.
With G44A A46U G47C A74G, the “polymerase ribozyme fitness (log ratio)” value is -1.99.
As for A43U C123G, the “polymerase ribozyme fitness (log ratio)” value came out at 0.036.
The value for G44C A50C G60U was -1.12; that for G42U G61U U92A C94A was -3.57; that for A43G A50C C85U C89A was -3.67.
The value for G42U G47U C123G was -1.61; that for A43G U55C C62U U109A G135C was -5.8; that for A43G U55C C64U C72G was -2.14.
Turning to G45A C99A, the “polymerase ribozyme fitness (log ratio)” value was -6.7.
For G45A C49A C94U G110A C124G, the “polymerase ribozyme fitness (log ratio)” value was -1.89.
To A43U A50G C72A G93C A95C C115U belongs -4.47; to G45A C115A, -1.15.
The value for A43U G63U G113U A119G was -2.34; that for G44C C53U C76U was -1.48; that for G44C C88U was -0.458.
In the case of G44A C72G, the “polymerase ribozyme fitness (log ratio)” value is -1.16.
To G44A C72U belongs -1.55; to G44U A46G C62U C94G, -4.05; to G42U G52C U55A, -2.16.
The value for A43U G120C was -0.477.
The value for G44U A46C was -2.3.
Regarding G42U G48A G110C A111G, the “polymerase ribozyme fitness (log ratio)” value was -6.19.
G45A C79G G107A: the “polymerase ribozyme fitness (log ratio)” value is -7.38.
With G44A C89U C104A U106A, the “polymerase ribozyme fitness (log ratio)” value is -2.1.
Take G45A C72U G110C: the “polymerase ribozyme fitness (log ratio)” value is -4.39.
In the case of G44A C49U A50C U78C U133G G135U, the “polymerase ribozyme fitness (log ratio)” value is -1.75.
The value for G44U G128U was -3.49; that for A43U G71A was -2.46; that for A43C C62U A84G was -5.86.
To A43C G71U C88A C123U belongs -3.41.
As for G44U C72U U96A U106G G117U A119U, the “polymerase ribozyme fitness (log ratio)” value is -6.08.
As for G45A C72U A74U, the “polymerase ribozyme fitness (log ratio)” value was -1.2.
On to A43U G44U A74U U87A, for which the “polymerase ribozyme fitness (log ratio)” value is -5.
On to G44A C94U, for which the “polymerase ribozyme fitness (log ratio)” value was -0.754.
To G45A C70G G110C belongs -6.17.
Regarding G44U U55A, the “polymerase ribozyme fitness (log ratio)” value is -0.917.
With G42U G63U, the “polymerase ribozyme fitness (log ratio)” value is -3.48.
The value for A43U G113A was -1.27; that for A43U C80U C99U G120C was -6.23; that for A43U G47U C72U U92A C104G C114G was -7.84.
In the case of A43G C62U C73U A84C U92A A118U U132C G135C, the “polymerase ribozyme fitness (log ratio)” value is -2.69.
Turning to A43G C85G, the “polymerase ribozyme fitness (log ratio)” value is -2.89.
Regarding G42U G45A G110C, the “polymerase ribozyme fitness (log ratio)” value is -5.34.
A43U C56G G71U G120A: the “polymerase ribozyme fitness (log ratio)” value is -4.58.
As to G44A C49A C85G C94A, the “polymerase ribozyme fitness (log ratio)” value is -3.35.
The value for A43U U59A U134G was -1.56; that for G44A G48C C56A was -1.29.
Turning to A43U C114G G117C U126A, the “polymerase ribozyme fitness (log ratio)” value was -5.06.
On to G44A G52A C56U, for which the “polymerase ribozyme fitness (log ratio)” value was -1.35.
As to G44A G61U, the “polymerase ribozyme fitness (log ratio)” value was -0.0446.
For the variant G44U A90G U132C, the “polymerase ribozyme fitness (log ratio)” value was -0.625.
The value for G45A A50U was -1.05.
To G44U C123U belongs 0.929.
In the case of G45A C62A U112G C115G, the “polymerase ribozyme fitness (log ratio)” value is -3.1.
To A43C U112G U126G G128U belongs -3.02.
G44A C62A A111G: the “polymerase ribozyme fitness (log ratio)” value is -3.93.
To A43U C49A belongs -1.86; to G44U C102G, -8.01.
Take G44A G52U G122A C123U C124G U130G: the “polymerase ribozyme fitness (log ratio)” value was -1.46.
To A43U C94A belongs -1.82; to A43U G63C U78C, -3.61; to A43U G120C C124U, -0.575.
To G44C U112G G120U G127C belongs -5.08.
To G45A C80A C115A belongs -3.93.
For G45A C49A G110U, the “polymerase ribozyme fitness (log ratio)” value was -2.18.
The value for A43C C85A C101A was -5.53; that for G44C G71A C82U A83C was -2.53; that for A43G C70U G120U G128U was -3.88.
In the case of G44U C49A G77U G120C U130G, the “polymerase ribozyme fitness (log ratio)” value was -2.08.
The value for G44C G63U C79U was -1.08.
The value for A43U G45A C53U C56G A84U was -2.19; that for G44A C64U was -1.11.
To G44A U59A G60U C89U A91G C104A C114U belongs -6.21; to G42U C62U C64U A84G, -4.19.
As for A43G C115A G135C, the “polymerase ribozyme fitness (log ratio)” value is -3.27.
On to A43C A46U, for which the “polymerase ribozyme fitness (log ratio)” value is -2.91.
A43G G60U: the “polymerase ribozyme fitness (log ratio)” value is -1.12.
The value for G44A C94U U126G was -2.82.
To G44A G51C belongs -5.22; to G42U U78C C88A U92A G120A, -1.83; to G44A U55A C70A, -3.95.
For A43U U54A G122U, the “polymerase ribozyme fitness (log ratio)” value is -2.82.
The value for G44U A95U G117C was -4.64.
The value for G44C G48U C53A G61C U112G was -6.03.
The value for G44C G61A A84C was -0.524; that for G44U G69A C76A G120C was -6.09.
Take A43U C56G C64U: the “polymerase ribozyme fitness (log ratio)” value was -2.1.
To G44U G45A U54A belongs -3.42.
G45A C73U C97U A103U G120C: the “polymerase ribozyme fitness (log ratio)” value was -5.59.
To G44A A121U belongs 1.03; to G44U C70U U96A C104A, -4.6; to G44U A68G C85A, -5.43.
The value for G44U C53A G63A G113A was -2.93; that for G44U A95G C99U was -4.84.
For the variant G44A A103G A105U G117A, the “polymerase ribozyme fitness (log ratio)” value was -6.51.
To G44A C88U belongs -1.23.
The value for G44C C101A was -1.76.
In the case of G44A C124A, the “polymerase ribozyme fitness (log ratio)” value was 0.456.
The value for G44A C72G C80U C101U was -2.59.
To G44U U54G C76A belongs -1.81; to G44C G63C A91G, -2.62.
To G44U U59G G120A belongs 0.601; to A43U C102A C114A, -5.12.
Turning to G44C U54A G61U C85U U87A C102A, the “polymerase ribozyme fitness (log ratio)” value was -4.76.
As for G45A A118G, the “polymerase ribozyme fitness (log ratio)” value was -1.02.
The value for G44A C53U was -2.11.
Regarding A43U G69U A91C, the “polymerase ribozyme fitness (log ratio)” value worked out at 0.416.
Take A43C G61U C123G: the “polymerase ribozyme fitness (log ratio)” value was -1.3.
For A43U G47C U92C G93C A121G, the “polymerase ribozyme fitness (log ratio)” value is -0.371.
To G44C C72U U78G C115G U133G belongs -1.84; to G42U C64U, -1.54.
As to G45A C56G U87G C114G, the “polymerase ribozyme fitness (log ratio)” value is -5.48.
The value for G42U G57U was -1.5.
To G44C C73A C115U belongs -2.64; to G42U G47A, -1.67.
To G42U G61C belongs -3.59; to A43C C101G A121U, -2.62.
Take G42U C123A: the “polymerase ribozyme fitness (log ratio)” value was -1.18.
The value for G45A A84C was -0.717.
The value for G44U G127C was -2.57.
To A43U C53U G77U C85G U106A belongs -5.13; to A43U C49G C72A C86A, -2.29.
Consider A43G C56G C82A A84C C114U, for which the “polymerase ribozyme fitness (log ratio)” value was -3.15.
For the variant G44C U106G C124G G135A, the “polymerase ribozyme fitness (log ratio)” value is -0.579.
Regarding G44U U59G, the “polymerase ribozyme fitness (log ratio)” value was -0.461.

For the origin of these results see the RNAGym collection of RNA variant scans (doi:10.1073/pnas.2313332121).
